In PMC7540344:
Values belong to the substance of their own block, whether it stands above or below them.

Columns and labels:
[1] = biological target: YC‐StFDL1a (Solanum tuberosum cv. Desiree)
YC‐St14‐3‐3a = assay: bimolecular fluorescence complementation (BiFC); conditions: random fields from maximum intensity projections (n ≥ 10); opposing half-leaves, same imaging conditions; read off a plot
YC‐St14‐3‐3f = assay: bimolecular fluorescence complementation (BiFC); conditions: random fields from maximum intensity projections (n ≥ 10); opposing half-leaves, same imaging conditions; read off a plot
YC‐StFD = YC‐StFD (UniProt A0A1E1F9A3); assay: bimolecular fluorescence complementation (BiFC); conditions: random fields from maximum intensity projections (n ≥ 10); opposing half-leaves, same imaging conditions; read off a plot
YC‐StFDL1a = YC‐StFDL1a (UniProt A0A1E1F9A2); assay: bimolecular fluorescence complementation (BiFC); conditions: random fields from maximum intensity projections (n ≥ 10); opposing half-leaves, same imaging conditions; read off a plot
YC‐StCEN = assay: bimolecular fluorescence complementation (BiFC); conditions: random fields from maximum intensity projections (n ≥ 10); opposing half-leaves, same imaging conditions; read off a plot

Sequence of UniProt A0A1E1F9A3 (A0A1E1F9A3 entry or part of it): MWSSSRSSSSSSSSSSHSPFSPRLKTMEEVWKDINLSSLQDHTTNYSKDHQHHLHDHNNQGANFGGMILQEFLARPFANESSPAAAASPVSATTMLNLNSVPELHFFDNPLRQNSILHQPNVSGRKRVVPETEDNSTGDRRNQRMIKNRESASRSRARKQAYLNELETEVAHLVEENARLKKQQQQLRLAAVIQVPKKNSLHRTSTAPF
Sequence of UniProt A0A1E1F9A2 (A0A1E1F9A2 entry or part of it): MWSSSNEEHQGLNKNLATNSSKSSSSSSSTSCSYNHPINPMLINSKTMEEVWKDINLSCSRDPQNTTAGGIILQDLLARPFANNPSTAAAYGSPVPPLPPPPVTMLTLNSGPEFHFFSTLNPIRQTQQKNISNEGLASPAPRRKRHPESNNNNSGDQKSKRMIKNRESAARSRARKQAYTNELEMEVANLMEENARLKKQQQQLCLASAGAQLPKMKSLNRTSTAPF

luciferase activity of the p6A::LUC reporter (2.64 kb StSP6A promoter) in N. benthamiana leaves co-expressing StSP6A and estradiol-induced StFDL1a, against the reporter alone [1]: 3 fold
Substance: StSP6A (tuberigen, FT orthologue of potato), 35S-driven GFP fusion (natural protein)

ratio to parent (YC‐St14‐3‐3a): 1.3 | ratio to parent (YC‐St14‐3‐3f): 1.2 | ratio to parent (YC‐StFD): 2.7 | ratio to parent (YC‐StFDL1a): 2.8
Substance: YN‐StCEN R64K; P96L; F103A; R132K

ratio to parent (YC‐StCEN): 3.4
Substance: YN‐StFDL1a (from UniProt A0A1E1F9A2) T224A
